# Source: PMC10639101
# Target: SecYEG labeled at SecY residue 292 with AF488 (E. coli) (UniProt P0AGA2)
# Assay: FRET or BRET
row,FRET efficiency,Substance
1,0.25,SecA-PhoA chimera labeled at PhoA residue 2 with AF647
2,0.46,SecA-PhoA chimera labeled at PhoA residue 22 with AF647
3,0.24,SecA-PhoA chimera labeled at PhoA residue 37 with AF647
4,0.3,SecA-PhoA chimera labeled at PhoA residue 45 with AF647
